Results: patent publication US20250304650A1
Substitutions are numbered along the chain they refer to. Numbers in names are those of the source. Where “and” joins values, the source holds several entries; their conditions need not be identical. Equal entries are not always repeated.

B1: feline IgG1a Fc variant S252W (CH2-CH3) with SASA tag (Fc fusion, part only; not given: SASA tag, not shown: another chain or arm of the molecule; small tags and cut ends)
Fc: PPEMLGGPSIFIFPPKPKDTLWISRTPEVTCLVVDLGPDDSDVQITWFVDNTQVYTAKTSPREEQFNSTYRVVSVLPILHQDWLKGKEFKCKVNSKSLPSPIERTISKAKGQPHEPQVYVLPPAQEELSRNKVSVTCLIKSFHPPDIAVEWEITGQPEPENNYRTTPPQLDSDGTYFVYSKLSVDRSHWQRGNTYTCSVSHEALHSHHTQKSLTQSPGK
B2: anti-NGF feline IgG1a, Fc variant R334D, R301L (antibody, part only; not given: anti-NGF variable domains, light chain, not shown: another chain or arm of the molecule; small tags and cut ends)
Fc: B1 Fc with W22S, R71L, R104D
B3: anti-NGF feline IgG1a, Fc variant S290V, R334D (antibody, part only; not given: anti-NGF variable domains, light chain, not shown: another chain or arm of the molecule; small tags and cut ends)
Fc: B1 Fc with W22S, S60V, R104D
B4: anti-NGF feline IgG1a, Fc variant Q311L (antibody, part only; not given: anti-NGF variable domains, light chain, not shown: another chain or arm of the molecule; small tags and cut ends)
Fc: B1 Fc with W22S, Q81L
B5: anti-NGF feline IgG1a, Fc variant S252Y, Q311R (antibody, part only; not given: anti-NGF variable domains, not shown: another chain or arm of the molecule; small tags and cut ends)
Fc: B1 Fc with W22Y, Q81R
B6: anti-NGF feline IgG1a, Fc variant E380T (antibody, part only; not given: anti-NGF variable domains, not shown: another chain or arm of the molecule; small tags and cut ends)
Fc: B1 Fc with W22S, E150T
B7: feline IgG1a Fc variant S252F (CH2-CH3) with SASA tag (Fc fusion, part only; not given: SASA tag, not shown: another chain or arm of the molecule; small tags and cut ends)
Fc: B1 Fc with W22F
B8: anti-NGF feline IgG1a, Fc variant R334D, T437L (antibody, part only; not given: anti-NGF variable domains, light chain, not shown: another chain or arm of the molecule; small tags and cut ends)
Fc: B1 Fc with W22S, R104D, T209L
B9: anti-NGF feline IgG1a, Fc variant S290Y (antibody, part only; not given: anti-NGF variable domains, not shown: another chain or arm of the molecule; small tags and cut ends)
Fc: B1 Fc with W22S, S60Y
B10: anti-NGF feline IgG1a, Fc variant S426L, T289H (antibody, part only; not given: Anti-NGF variable domains, not shown: another chain or arm of the molecule; small tags and cut ends)
Fc: B1 Fc with W22S, T59H, S198L
B11: anti-NGF feline IgG1a, Fc variant S426L, S428H (antibody, part only; not given: anti-NGF variable domains, light chain, not shown: another chain or arm of the molecule; small tags and cut ends)
Fc: B1 Fc with W22S, S198L, S200H
B12: anti-NGF feline IgG1a, Fc variant T286D (antibody, part only; not given: anti-NGF variable domains, not shown: another chain or arm of the molecule; small tags and cut ends)
Fc: B1 Fc with W22S, T56D
B13: anti-NGF feline IgG1a, Fc variant N389c-R (antibody, part only; not given: anti-NGF variable domains, not shown: another chain or arm of the molecule; small tags and cut ends)
Fc: B1 Fc with W22S, N161R
B14: anti-NGF feline IgG1a, Fc variant K326D (antibody, part only; not given: anti-NGF variable domains, not shown: another chain or arm of the molecule; small tags and cut ends)
Fc: B1 Fc with W22S, K96D
B15: anti-NGF feline IgG1a with wild-type Fc (antibody, part only; not given: anti-NGF variable domains, not shown: another chain or arm of the molecule; small tags and cut ends)
Fc: B1 Fc with W22S
B16: anti-NGF feline IgG1a, Fc variant S252Y, Q311L (antibody, part only; not given: anti-NGF variable domains, not shown: another chain or arm of the molecule; small tags and cut ends)
Fc: B1 Fc with W22Y, Q81L
B17: anti-NGF feline IgG1a, Fc variant S252R, L262Q (antibody, part only; not given: anti-NGF variable domains, light chain, not shown: another chain or arm of the molecule; small tags and cut ends)
Fc: B1 Fc with W22R, L32Q
B18: anti-NGF feline IgG1a, Fc variant Q347L (antibody, part only; not given: Anti-NGF variable domains, not shown: another chain or arm of the molecule; small tags and cut ends)
Fc: B1 Fc with W22S, Q117L
B19: anti-NGF feline IgG1a, Fc variant T286E, S428H (antibody, part only; not given: Anti-NGF variable domains, not shown: another chain or arm of the molecule; small tags and cut ends)
Fc: B1 Fc with W22S, T56E, S200H
B20: anti-NGF feline IgG1a, Fc variant R301L (antibody, part only; not given: anti-NGF variable domains, not shown: another chain or arm of the molecule; small tags and cut ends)
Fc: B1 Fc with W22S, R71L
B21: anti-NGF feline IgG1a, Fc variant T286E (antibody, part only; not given: anti-NGF variable domains, light chain, not shown: another chain or arm of the molecule; small tags and cut ends)
Fc: B1 Fc with W22S, T56E
B22: feline IgG1a Fc variant S252Y (CH2-CH3) with SASA tag (Fc fusion, part only; not given: SASA tag, not shown: another chain or arm of the molecule; small tags and cut ends)
Fc: B1 Fc with W22Y
B23: anti-NGF feline IgG1a, Fc variant L309E (antibody, part only; not given: anti-NGF variable domains, light chain, not shown: another chain or arm of the molecule; small tags and cut ends)
Fc: B1 Fc with W22S, L79E

Experiments:
[1] = biological target: feline FcRn (IgG receptor FcRn large subunit p51 with feline beta-2-microglobulin) (feline); test: SPR Biacore 8K, Fc captured by SASA tag on BSA, pH 6.0
[2] = biological target: feline FcRn (FCN-F82W3, Acrobiosystems) (feline); test: SPR Carterra, IgG coupled, pH 6.0

| Binder | Kd [1] | koff [1] | kon [1] | Kd [2] | koff [2] | kon [2] |
| --- | --- | --- | --- | --- | --- | --- |
| B1 | 23.5 nM and 23.3 nM | 0.00538 s⁻¹ and 0.00545 s⁻¹ | 228000 M⁻¹ s⁻¹ and 234000 M⁻¹ s⁻¹ | – | – | – |
| B2 | – | – | – | 90.7 nM | 0.0417 s⁻¹ | 460000 M⁻¹ s⁻¹ |
| B3 | – | – | – | 10.7 nM | 0.00997 s⁻¹ | 931000 M⁻¹ s⁻¹ |
| B4 | – | – | – | 88.2 nM | 0.0499 s⁻¹ | 565000 M⁻¹ s⁻¹ |
| B5 | – | – | – | 6.9 nM | 0.0064 s⁻¹ | 926000 M⁻¹ s⁻¹ |
| B6 | – | – | – | 116 nM | 0.062 s⁻¹ | 533000 M⁻¹ s⁻¹ |
| B7 | 470 nM and 492 nM | 0.0957 s⁻¹ and 0.101 s⁻¹ | 203000 M⁻¹ s⁻¹ and 205000 M⁻¹ s⁻¹ | – | – | – |
| B8 | – | – | – | 95.7 nM | 0.0437 s⁻¹ | 457000 M⁻¹ s⁻¹ |
| B9 | – | – | – | 128 nM | 0.0849 s⁻¹ | 661000 M⁻¹ s⁻¹ |
| B10 | – | – | – | 115 nM | 0.0622 s⁻¹ | 542000 M⁻¹ s⁻¹ |
| B11 | – | – | – | 100 nM | 0.0445 s⁻¹ | 445000 M⁻¹ s⁻¹ |
| B12 | – | – | – | 97.4 nM | 0.0389 s⁻¹ | 400000 M⁻¹ s⁻¹ |
| B13 | – | – | – | 188 nM | 0.0944 s⁻¹ | 502000 M⁻¹ s⁻¹ |
| B14 | – | – | – | 136 nM | 0.0584 s⁻¹ | 428000 M⁻¹ s⁻¹ |
| B15 | – | – | – | 233 nM | 0.11 s⁻¹ | 472000 M⁻¹ s⁻¹ |
| B16 | – | – | – | 7 nM | 0.00516 s⁻¹ | 740000 M⁻¹ s⁻¹ |
| B17 | – | – | – | 4.9 nM | 0.00795 s⁻¹ | 1.63e+06 M⁻¹ s⁻¹ |
| B18 | – | – | – | 157 nM | 0.0853 s⁻¹ | 544000 M⁻¹ s⁻¹ |
| B19 | – | – | – | 47.3 nM | 0.0283 s⁻¹ | 598000 M⁻¹ s⁻¹ |
| B20 | – | – | – | 95.2 nM | 0.0435 s⁻¹ | 457000 M⁻¹ s⁻¹ |
| B21 | – | – | – | 93.4 nM | 0.0457 s⁻¹ | 489000 M⁻¹ s⁻¹ |
| B22 | 103 nM and 102 nM | 0.0265 s⁻¹ and 0.0263 s⁻¹ | 257000 M⁻¹ s⁻¹ and 258000 M⁻¹ s⁻¹ | – | – | – |
| B23 | – | – | – | 102 nM | 0.0415 s⁻¹ | 406000 M⁻¹ s⁻¹ |
